Target: amyloid precursor protein (APP), endogenous mouse (mouse (endogenous in mouse brain and primary neurons))
Experiment: co-IP

decrease in APP-Dab1 co-precipitation against control, 20 min of Reelin: 89 % decrease | decrease in APP-Dab1 co-precipitation against control, 1 hr of Reelin: 87 % decrease | decrease in APP-Dab1 co-precipitation against control, 4 hrs of Reelin: 67 % decrease
B1: Disabled1 (Dab1), endogenous mouse (natural protein)
chain: MSTETELQVAVKTSAKKDSRKKGQDRSEATLIKRFKGEGVRYKAKLIGIDEVSAARGDKLCQDSMMKLKGVVAGARSKGEHKQKIFLTISFGGIKIFDEKTGALQHHHAVHEISYIAKDITDHRAFGYVCGKEGNHRFVAIKTAQAAEPVILDLRDLFQLIYELKQREELEKKAQKDKQCEQAVYQTILEEDVEDPVYQYIVFEAGHEPIRDPETEENIYQVPTSQKKEGVYDVPKSQPNSQPLEDFESRFAAATPNRNLSMDFDELLEATKVSAVTQLELFGDMSTPPDITSPPTPATPGDAFLPSSSQTLPGSADVFGSMSFGTAAVPSGYVAMGAVLPSFWGQQPLVQQQIAMGAQPPVAQVIPGAQPIAWGQPGLFPATQQAWPTVAGQFPPAAFMPTQTVMPLAAAMFQGPLTPLATVPGTNDSARSSPQSDKPRQKMGKESFKDFQMVQPPPVPSRKPDQPSLTCTSEAFSSYFNKVGVAQDTDDCDDFDISQLNLTPVTSTTPSTNSPPTPAPRQSSPSKSSASHVSDPTADDIFEEGFESPSKSEEQEAPDGSQASSTSDPFGEPSGEPSGDNISPQDGS

— publication PMC3155659
